The target in assay [1] is T1, human GIPR (human), P48546.
T1 chain: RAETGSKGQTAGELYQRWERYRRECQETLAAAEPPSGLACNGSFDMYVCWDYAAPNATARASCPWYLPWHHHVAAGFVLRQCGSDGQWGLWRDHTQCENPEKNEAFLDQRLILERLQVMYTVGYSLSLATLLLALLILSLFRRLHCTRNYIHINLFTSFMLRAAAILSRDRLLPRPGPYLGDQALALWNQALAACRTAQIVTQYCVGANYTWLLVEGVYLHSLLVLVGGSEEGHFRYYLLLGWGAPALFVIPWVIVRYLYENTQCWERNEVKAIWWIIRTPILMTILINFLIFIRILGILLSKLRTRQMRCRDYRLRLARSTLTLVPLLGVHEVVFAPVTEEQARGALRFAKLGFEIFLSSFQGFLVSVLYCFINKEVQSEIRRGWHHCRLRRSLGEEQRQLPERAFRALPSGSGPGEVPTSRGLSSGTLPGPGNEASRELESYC

The target in assay [2] is T2, human GLP-1R (human), P43220.
T2 chain: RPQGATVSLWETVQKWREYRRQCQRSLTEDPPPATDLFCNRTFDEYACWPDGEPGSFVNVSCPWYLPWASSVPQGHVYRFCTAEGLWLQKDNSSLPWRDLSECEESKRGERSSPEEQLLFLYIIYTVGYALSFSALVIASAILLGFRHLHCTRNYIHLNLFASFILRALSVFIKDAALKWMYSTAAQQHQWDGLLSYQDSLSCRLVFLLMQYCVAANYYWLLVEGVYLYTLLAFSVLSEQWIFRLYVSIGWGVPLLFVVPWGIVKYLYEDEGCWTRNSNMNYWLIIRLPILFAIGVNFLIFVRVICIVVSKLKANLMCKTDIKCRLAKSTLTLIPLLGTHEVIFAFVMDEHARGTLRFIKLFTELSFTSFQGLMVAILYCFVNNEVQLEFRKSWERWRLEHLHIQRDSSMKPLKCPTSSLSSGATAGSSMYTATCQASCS

The target of assay [3] is T1, human GIPR (human), P48546. The assay is described as follows: [125I]GIP competition, human GIPR VLP.
For assay [4], the target named is human GLP-1R (human, UniProt P43220). Briefly: cell-based or functional assay.
For assay [5] the target is unchanged. The assay is described as follows: cell-based or functional assay. The source holds these as a separate data set.

Starred links: 1 amine or outer side, 2 acyl side, 3 side chain; linkers in the order of their positions; H or OH if unused. Non-standard residues stand in square brackets, D forms with d. Groups on a side chain read outwards from the residue. Primed or numbered codes have the meaning given here. No end group written: not given here. *: point of attachment. C20 diacid = O=C(O)CCCCCCCCCCCCCCCCCCC(=O)*; γGlu = O=C(O)[C@H](CCC(=O)[*:2])N[*:1]; NMeY = CN[C@@H](Cc1ccc(O)cc1)C(=O)O; Iva = CC[C@](C)(N)C(=O)O; PEG3′ = not defined here; Aib = CC(C)(N)C(=O)O

A word on the IC50: it is the midpoint of a concentration-inhibition curve. High values mean lower potency, low ones higher potency. Consider Y[Aib]EGTFISDYSK([PEG(2)-C20 diacid])ALDRIAQQNFVNW[Iva]LAQRPSSGAPPPS (ends and bridges not checked) [Compound 381], for which the Agonist activity (EC50, M) was 4.4e-11 M in assay [1] and more than 1e-06 M in assay [2]. For the same molecule, in assay [3], the IC50 came out at 8.7 nM.
As for Y[Aib]EGTFISDYSK([PEG(2)-C20 diacid])ALDRIAQQNFVNW[Iva]LAQR (ends and bridges not checked) [Compound 387], the Agonist activity (EC50, M) in assay [1] is 5.9e-11 M; in assay [2], more than 1e-06 M. In addition, the IC50 in assay [3] was determined as 8.2 nM.
Turning to Y[Aib]EGTFISDYSIALDRK([PEG(2)-C20 diacid])AQQNFVNW[Iva]LAQRPSSGAPPPS (ends and bridges not checked) [Compound 385], the Agonist activity (EC50, M) in assay [1] was 8.3e-11 M; in assay [2] it was more than 1e-06 M. In assay [3], the IC50 amounted to 15 nM.
The like results for Y[Aib]EGTFISDYSIAK([PEG(2)-C20 diacid])DRIAQQNFVNW[Iva]LAQR (ends and bridges not checked) [Compound 389] were, in that order, 8e-11 M, more than 1e-06 M and 19 nM.
For Y[Aib]EGTVVSLYSK([PEG3′-PEG3′-γGlu-C20 diacid])[Aib]LDRQAQ[Aib]EFVK(Ac)WLLRGGPSSGAPPPS (ends and bridges not checked) [Compound 326], the IC50 in assay [3] turned out to be 15 nM.
Consider YXEGTXISDYSIALDRXAQXNFVNWLLAQRPSSGAPPPSR (N-methyl on Tyr 1 (Me-Tyr); Aib at 2, 17, 20; Iva at 6; C-terminal amide (NH2)) [Compound 104], for which, in the assay with human GLP-1R [4], the “Agonist activity (EC50, M)” value was more than 1e-06 M.

B1: Compound 113 (peptide)
peptide: YXEGTXISDYSIXLDRXAQXNFVNWXLAQRPSSGAPPPSR
modifications: N-methyl on Tyr 1 (Me-Tyr); Aib at 2, 13, 17, 20; Iva at 6, 26; C-terminal amide (NH2)
B1: the “Agonist activity (EC50, M)” value in the assay with human GLP-1R [4] was more than 1e-06 M.
Molecule Y[Aib]EGTVVSLYSK([PEG3′-PEG3′-C20 diacid])[Aib]LDRQAQ[Aib]EFVK(Ac)WLLRGGPSSGAPPPS (ends and bridges not checked) [Compound 324] gave an IC50 in assay [3] of 7.8 nM.
Consider Y[Aib]EGTFISDYSIALDRK([PEG(2)-C20 diacid])AQQNFVNW[Iva]LAQR (ends and bridges not checked) [Compound 391], for which the Agonist activity (EC50, M) in assay [1] was 1.1e-10 M; in assay [2], more than 1e-06 M. In assay [3], this molecule returned an IC50 of 34 nM.
The like results for Y[Aib]EGTFISDYSIAK([PEG(2)-C20 diacid])DRIAQQNFVNW[Iva]LAQRPSSGAPPPS (ends and bridges not checked) [Compound 383] were, in that order, 4.3e-11 M, more than 1e-06 M and 10 nM.

B2: Compound 42 (peptide)
peptide: Y[Aib]EGTVVSLYSI[Aib]LDKQAQ[Aib]EFVKW[Aib]LKGGPSSGAPPPSK-NH2
modifications: N-terminus assumed
SMILES: CC[C@H](C)[C@H](NC(=O)[C@H](CO)NC(=O)[C@H](Cc1ccc(O)cc1)NC(=O)[C@H](CC(C)C)NC(=O)[C@H](CO)NC(=O)[C@@H](NC(=O)[C@@H](NC(=O)[C@@H](NC(=O)CNC(=O)[C@H](CCC(=O)O)NC(=O)C(C)(C)NC(=O)[C@@H](N)Cc1ccc(O)cc1)[C@@H](C)O)C(C)C)C(C)C)C(=O)NC(C)(C)C(=O)N[C@@H](CC(C)C)C(=O)N[C@@H](CC(=O)O)C(=O)N[C@@H](CCCCN)C(=O)N[C@@H](CCC(N)=O)C(=O)N[C@@H](C)C(=O)N[C@@H](CCC(N)=O)C(=O)NC(C)(C)C(=O)N[C@@H](CCC(=O)O)C(=O)N[C@@H](Cc1ccccc1)C(=O)N[C@H](C(=O)N[C@@H](CCCCN)C(=O)N[C@@H](Cc1c[nH]c2ccccc12)C(=O)NC(C)(C)C(=O)N[C@@H](CC(C)C)C(=O)N[C@@H](CCCCN)C(=O)NCC(=O)NCC(=O)N1CCC[C@H]1C(=O)N[C@@H](CO)C(=O)N[C@@H](CO)C(=O)NCC(=O)N[C@@H](C)C(=O)N1CCC[C@H]1C(=O)N1CCC[C@H]1C(=O)N1CCC[C@H]1C(=O)N[C@@H](CO)C(=O)N[C@@H](CCCCN)C(N)=O)C(C)C
On to B2, for which the “Agonist activity (EC50, M)” value in the assay with human GLP-1R [4] is more than 1e-06 M.
On to Y[Aib]EGTFISDYSIALDRK([PEG(2)-C20 diacid])AQQNFVNW[Iva]LAQRPSSGAPPPS (not fully specified (C-terminus); ends and bridges not checked) [Compound 408], for which the Agonist activity (EC50, M) in assay [1] was 4.8e-10 M; in assay [2], more than 1e-06 M. In addition, the IC50 in assay [3] is 84 nM.

B3: Compound 59 (peptide)
peptide: [NMeY][Aib]EGTFISDYSIALDRIAQQDFVNWLLAQRPSSGAPPPSR-NH2
modifications: N-terminus assumed
SMILES: CC[C@H](C)[C@H](NC(=O)[C@H](CCCNC(=N)N)NC(=O)[C@H](CC(=O)O)NC(=O)[C@H](CC(C)C)NC(=O)[C@H](C)NC(=O)[C@@H](NC(=O)[C@H](CO)NC(=O)[C@H](Cc1ccc(O)cc1)NC(=O)[C@H](CC(=O)O)NC(=O)[C@H](CO)NC(=O)[C@@H](NC(=O)[C@H](Cc1ccccc1)NC(=O)[C@@H](NC(=O)CNC(=O)[C@H](CCC(=O)O)NC(=O)C(C)(C)NC(=O)[C@H](Cc1ccc(O)cc1)NC)[C@@H](C)O)[C@@H](C)CC)[C@@H](C)CC)C(=O)N[C@@H](C)C(=O)N[C@@H](CCC(N)=O)C(=O)N[C@@H](CCC(N)=O)C(=O)N[C@@H](CC(=O)O)C(=O)N[C@@H](Cc1ccccc1)C(=O)N[C@H](C(=O)N[C@@H](CC(N)=O)C(=O)N[C@@H](Cc1c[nH]c2ccccc12)C(=O)N[C@@H](CC(C)C)C(=O)N[C@@H](CC(C)C)C(=O)N[C@@H](C)C(=O)N[C@@H](CCC(N)=O)C(=O)N[C@@H](CCCNC(=N)N)C(=O)N1CCC[C@H]1C(=O)N[C@@H](CO)C(=O)N[C@@H](CO)C(=O)NCC(=O)N[C@@H](C)C(=O)N1CCC[C@H]1C(=O)N1CCC[C@H]1C(=O)N1CCC[C@H]1C(=O)N[C@@H](CO)C(=O)N[C@@H](CCCNC(=N)N)C(N)=O)C(C)C
Turning to B3, in the assay with human GLP-1R [4], the “Agonist activity (EC50, M)” value was more than 1e-06 M.

B4: Compound 117 (peptide)
peptide: [NMeY][Aib]EGTFISDYSIALDR[Aib]HQ[Aib]NFVNW[Iva]LAQRPSSGAPPPSR-NH2
modifications: N-terminus assumed
SMILES: CC[C@H](C)[C@H](NC(=O)[C@H](CO)NC(=O)[C@H](Cc1ccc(O)cc1)NC(=O)[C@H](CC(=O)O)NC(=O)[C@H](CO)NC(=O)[C@@H](NC(=O)[C@H](Cc1ccccc1)NC(=O)[C@@H](NC(=O)CNC(=O)[C@H](CCC(=O)O)NC(=O)C(C)(C)NC(=O)[C@H](Cc1ccc(O)cc1)NC)[C@@H](C)O)[C@@H](C)CC)C(=O)N[C@@H](C)C(=O)N[C@@H](CC(C)C)C(=O)N[C@@H](CC(=O)O)C(=O)N[C@@H](CCCNC(=N)N)C(=O)NC(C)(C)C(=O)N[C@@H](Cc1c[nH]cn1)C(=O)N[C@@H](CCC(N)=O)C(=O)NC(C)(C)C(=O)N[C@@H](CC(N)=O)C(=O)N[C@@H](Cc1ccccc1)C(=O)N[C@H](C(=O)N[C@@H](CC(N)=O)C(=O)N[C@@H](Cc1c[nH]c2ccccc12)C(=O)N[C@@](C)(CC)C(=O)N[C@@H](CC(C)C)C(=O)N[C@@H](C)C(=O)N[C@@H](CCC(N)=O)C(=O)N[C@@H](CCCNC(=N)N)C(=O)N1CCC[C@H]1C(=O)N[C@@H](CO)C(=O)N[C@@H](CO)C(=O)NCC(=O)N[C@@H](C)C(=O)N1CCC[C@H]1C(=O)N1CCC[C@H]1C(=O)N1CCC[C@H]1C(=O)N[C@@H](CO)C(=O)N[C@@H](CCCNC(=N)N)C(N)=O)C(C)C
On to B4, for which, in the assay with human GLP-1R [4], the “Agonist activity (EC50, M)” value is more than 1e-06 M.

B5: Compound 341 (peptide)
peptide: YXEGTXISDYSIXXDRXAQXNFVNWXLAQRPSSGAPPPS
modifications: MeTyr at 1; Aib at 2, 13, 17, 20; Iva at 6, 26; Lys(Eda-GGGGG-) at 14; C-terminal amide (-NH2)
As to B5, the “Agonist activity (EC50, M)” value in the assay with human GLP-1R [5] was more than 1e-06 M.

B6: Compound 349 (peptide)
peptide: YXEGTXISDYSIXLDRXAQXNFVNWXLAQRPSSGAPPPS
modifications: MeTyr at 1; Aib at 2, 13, 20; Iva at 6, 26; Lys(Oda-GGGGG-) at 17; C-terminal amide (-NH2)
For the molecule B6, the “Agonist activity (EC50, M)” value with human GLP-1R [5] is more than 1e-06 M.

B7: Compound 342 (peptide)
peptide: YXEGTXISDYSIXXDRXAQXNFVNWXLAQRPSSGAPPPS
modifications: Me-Tyr at 1; Aib at 2, 13, 17, 20; Iva at 6, 26; Lys(Eda-GGGGGG-) at 14; C-terminal amide (-NH2) (as printed for SEQ ID NO: 355 in the 1st table)
Take B7: the “Agonist activity (EC50, M)” value with human GLP-1R [5] is more than 1e-06 M.
On to Y[Aib]EGTFISDYSIALDRK([PEG(2)-C20 diacid])AQQNFVNW[Iva]LAQRPSSGAPPPS (not fully specified (C-terminus); ends and bridges not checked) [Compound 404], for which the Agonist activity (EC50, M) was 1.1e-10 M in assay [1] and more than 1e-06 M in assay [2]. The same molecule yielded an IC50 in assay [3] of 24 nM.

The record behind these values is patent US20180298070A1, “PEPTIDE COMPOUND” (Takeda Pharmaceutical Company Limited, published 2018).
